Measured values from patent publication US20160289305A1 (INTERNATIONAL AIDS VACCINE INITIATIVE, published 2016).

Target: T1, YU2 gp120 (HIV-1, UniProt P35961 32-498)
T1 construct: domain: gp120
Assay: ELISA

B1: VRC-PG-05 (antibody, V domains shown)
VH: EVQLVESGGGLVQPGGSLRLSCAASGFPFNRDWMTWVRQAPGKGLEWVANINMDGDKKDYVDSVKGRFTISRDNAKTSLYLQMNSLRAGDTAVYYCARIRQVSKYLQWYPGVFEMWGQGTMVTVSS
VL: DIVMTQSPDSLAVSLGERATIHCKSSQSVLYRPNNRNYVAWYQQKPGQPPRLLIHWASFRESGVPDRFTGSGSGTDFTLTISSLQAEDVAVYYCQQYFFLYSFGGGTKLEIN
binding result: binds
